Measured values reported in US20210206850A1 (ACCURUS BIOSCIENCES, published 2021).
“And” between values parts separate entries of the source, which are not always exact repeats. Identical values can stand only once.

Columns and labels:
[1] = molecular target: T1, human CD47ECD His tagged protein (human, UniProt Q08722 19-139, limits assumed); experiment: ELISA competition; plate-bound human CD47ECD His, competitor ligand SIRPα huFc 1 ug/ml
T1 construct: extracellular domain; also called HuCD47ECD 8xHis; monovalent CD47ECD His tagged protein
T1 sequence (Q08722 19-139 limits assumed): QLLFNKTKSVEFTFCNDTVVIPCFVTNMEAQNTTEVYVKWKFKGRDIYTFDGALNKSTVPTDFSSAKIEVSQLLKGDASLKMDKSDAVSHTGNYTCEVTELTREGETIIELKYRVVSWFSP
Protocol: (§1) To evaluate the blocking ability of anti-human CD47 mouse mAb on recombinant human CD47 binding to its ligand SIRPα, an ELISA based ligand blocking assay was employed. Briefly, microtiter plates were coated with human CD47ECD His tagged protein at 1 μg/ml in PBS, 100 μl well at 4° C. overnight, then blocked with 100 μl/well of 2% BSA. […] The plates were washed with PBS/Tween and then incubated with anti-human IgG-HRP for 1 hour at 37° C. After washing, the plates were developed with TMB substrate and analyzed by spectrophotometer at OD 450 nm.

[2] = molecular target: T2, human CD47ECD human Fc protein (human, UniProt Q08722 19-139, limits assumed); experiment: ELISA, plate coated with human CD47ECD huFc at 1 ug/ml, goat anti-mouse IgG-HRP, OD450
T2 construct: extracellular domain; also called human CD47ECD huFc; human CD47huFc; not shown: human Fc
T2 sequence (Q08722 19-139 limits assumed): as above
Source text: After washing, the plates were developed with TMB substrate and analyzed by spectrophotometer at OD 450 nm.

[3] = molecular target: T3, His tagged mouse CD47 protein (mouse, UniProt Q61735 19-140, limits assumed); experiment: ELISA, plate coated with His tagged mouse CD47 at 2 ug/ml, goat anti-mouse IgG-HRP, OD450
T3 construct: Bought protein
T3 sequence (looked up): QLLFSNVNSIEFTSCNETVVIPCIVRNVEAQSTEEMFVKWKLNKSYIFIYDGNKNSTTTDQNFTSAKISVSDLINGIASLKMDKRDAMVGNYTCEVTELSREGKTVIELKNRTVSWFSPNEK
Protocol: To evaluate the binding cross-reactivity of anti-human CD47 antibodies to cynomolgus and mouse CD47, an ELISA based binding assay was used. Briefly, microtiter plates were coated with His tagged cynomolgus monkey CD47 or His tagged mouse CD47 protein (purchase from Acro Biosystem). Both proteins were coated at 2 μg/ml in PBS, 100 μl/well at 4° C. overnight. The plates were then blocked with 100 μl/well of 2% BSA. Ten-fold dilutions of mouse anti-human CD47 hybridoma antibodies were added to each well starting at 70 ug/ml and incubated for 1-2 hours at RT. The plates were washed with PBS/Tween and then incubate with goat-anti-mouse IgG antibody conjugated with Horse Radish Peroxidase (HRP) for 1 hour at RT. After washing, the plates were developed with TMB substrate and analyzed by spectrophotometer at OD 450 nm.

[4] = molecular target: T1, human CD47ECD His tagged protein; experiment: ELISA ligand blocking, plate coated with human CD47 ECD His tagged protein at 1 ug/ml; blocked ligand human SIRPaECD huFc at 1 ug/ml, anti-human IgG-HRP
Protocol: as §1

[5] = molecular target: human CD47 (full length) expressed on cells (human) (UniProt Q08722); experiment: FACS ligand blocking on CD47-CHO cells; blocked ligand FITC human SIRPa huFc at 4 ug/ml
Chain of human CD47 (full length) expressed on cells (human) (Q08722 19-323): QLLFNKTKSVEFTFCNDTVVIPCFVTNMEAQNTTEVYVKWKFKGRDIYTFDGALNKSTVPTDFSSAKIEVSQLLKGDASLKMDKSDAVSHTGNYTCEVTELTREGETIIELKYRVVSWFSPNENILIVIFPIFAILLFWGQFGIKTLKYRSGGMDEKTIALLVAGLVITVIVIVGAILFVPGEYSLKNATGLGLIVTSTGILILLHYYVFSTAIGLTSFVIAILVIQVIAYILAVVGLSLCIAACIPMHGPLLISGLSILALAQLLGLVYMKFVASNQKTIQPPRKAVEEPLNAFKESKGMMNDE

[6] = molecular target: T4, human CD47ECD mouse Fc protein (human, UniProt Q08722 19-139, limits assumed); experiment: SPR (Biacore 3000); antibody captured on anti-human Fc chip, bivalent HuCD47ECD muFc injected
T4 construct: extracellular domain; also called HuCD47ECD muFc; bivalent CD47ECD muFc protein; not shown: mouse Fc
T4 sequence (Q08722 19-139 limits assumed): as the sequence (Q08722 19-139 limits assumed) above
Protocol: (§2) The binding affinities of anti-human CD47 mouse/human chimeric antibodies to human CD47 protein were determined with BIACORE™ using a capture method. The anti-human CD47 mouse/human chimeric antibodies were captured using anti-human Fc antibody coated on a CMS chip. Serial dilutions of human CD47ECD mouse Fc protein starting from 400 nM were injected over captured antibody for 1 mins at a flow rate of […]. Alternatively, serial dilutions of human CD47ECD His tagged protein starting from 800 nM were injected over captured antibody for 1 min at a flow rate of […]. The antigens were allowed to dissociate for 900s. All the experiments were carried out on a Biacore 3000. Data analysis was carried out using Biacore 3000 evaluation software.

[7] = molecular target: T1, human CD47ECD His tagged protein; experiment: SPR (Biacore 3000); antibody captured on anti-human Fc chip, monovalent HuCD47ECD 8xHis injected
Protocol: as §2

[8] = molecular target: T4, human CD47ECD mouse Fc protein; experiment: SPR (Biacore 3000); antibody captured on anti-human Fc chip, bivalent HuCD47ECD muFc injected; column Affinity (nM)
Protocol: as §2

[9] = molecular target: T1, human CD47ECD His tagged protein; experiment: SPR (Biacore 3000); antibody captured on anti-human Fc chip, monovalent HuCD47ECD 8xHis injected; column Affinity (nM)
Protocol: as §2

B1: D36S4 mouse anti-human CD47 hybridoma antibody (antibody, V domains shown)
VH: EVKLEESGGGLVQPGGSMKLSCVASGFTFSRYWMNWVRQSPDKGLEWVAQIRLKSDNYETHYAESVKGRFTISRDDSKSSVYLQMNNLRAEDTGIYYCIEEGGYYVPFAYWGQGTLVTVSA
VL: DIVVSQSPSSLAVSAGEKVTMSCKSSQSLFKSRTRKNYLAWYQQRPGQSPKLLIYWASIRESGVPDRFTGSGSGTEFTLTISSVQAEDLAVYYCKQSYYLLTFGAGTKLELK
notes: Mouse hybridoma IgG
In the case of B1, the IC50 [1] is reported as 590 pM, the “EC50 (read off the curve)” value [2] is reported as roughly 0.02 µg/mL and the binding result [3] is reported as “binds”. For the same binder, the IC50 [4] was 0.09 µg/mL.

B2: D28S1 mouse anti-human CD47 hybridoma antibody (antibody, V domains shown)
VH: EVQLVESGGDLVKPGGSLKLSCAASGFTFTSYGMSWVRQTPDKRLEWVATINTGGSYTYYPDSVKGRFTISRDNAKNTLYLQMSSLKSEDTAMYYCARHTIKSLMDYWGQGTSVTVSS
VL: ETTVTQSPASLSMAIGEKVTIRCITSTDIDDDMNWYQQKPGEPPKLLISEGNTLRPGVPSRFSSSGYGTDFVFIIENMFSEDVADYYCLQSDNLPYTFGSGTKLEIK
notes: Mouse hybridoma IgG
B2 was tested, and the IC50 [1] was 1000 pM and the IC50 [4] was 0.15 µg/mL and 1.02 nM.

B3: D8S1 (antibody, V domains shown)
VH: EVQLQQSVAELVRPGASVKLSCTVSGFNIKNTYIYWVKQRPEQGLEWIGRIDPANGNTKDAPKFQGKATMTADTSSNTAYLQLSSLTSEDTAIYYCARGYGSGFAYWGQGTLVTVSA
VL: DIQMTQTTSSLSASLGDRVTISCRASQDISNHLNWYQQKPDGIVKLLIYYTSRLHSGVPSRFSGSGSGTDYSLTISNLEQEDIATYFCQQGSTLPFTFGSGTKLEIK
notes: Mouse hybridoma form; the mouse/human chimeric form with the same V regions is m13; also called D8S1 mouse anti-human CD47 hybridoma antibody
B3 was tested, and the binding result [3] was “no binding (tested: 70 ug/ml)” and the IC50 [4] was 0.27 µg/mL and 1.77 nM.

B4: D96S1 mouse anti-human CD47 hybridoma antibody (antibody, V domains shown)
VH: EVQLQQSGAELVKPGASVKLSCTASGFNIKDTYIHWVKQRPEQGLEWIGRIDPANGNIKSDPKFQGKATVTADTSSNTAYLQLSSLTSEDTAVYYCARSYGSSFASWGQGTLVTVSP
VL: DIQMTQTTSSLSASLGDRVTISCRASQDISNHLNWYQQKPDGAVKLLIYYTSRLHSGVPSRFSGSGSGTDYSLTISNLEQEDIATYFCQQGSTFPYTFGGGTKLEIK
notes: Mouse hybridoma IgG
In the case of B4, the binding result [3] is reported as “no binding (tested: 70 ug/ml)” and the IC50 [4] is reported as 1.94 µg/mL and 12.9 nM.

B5: D41S2 (antibody, V domains shown)
VH: EVQLQQSVAELVRPGASVKLSCTPSGFNIKNTYIYWVRQRPEQGLEWIGRIDPANGNTKDAPKFQGKATMTADTSSNTAYLQLSSLTSEDTAIYYCARGYGSGFAYWGQGTLVTVSA
VL: DIQMTQTTSSLSASLGDRVTISCRASQDISNHLNWYQQKPDGTVKLLIYYTSRLHSGVPSRFSGSGSGTDYSLTISNLEQEDIATYFCQQGSTLPFTFGSGTKLEIK
notes: Mouse hybridoma form; the mouse/human chimeric form with the same V regions is m16; also called D41S2 mouse anti-human CD47 hybridoma antibody
In the case of B5, the binding result [3] is reported as “no binding (tested: 70 ug/ml)” and the IC50 [4] is reported as 0.16 µg/mL and 1.06 nM.

B6: D125S3 (antibody, V domains shown)
VH: EVQLVESGGDLVKPGGSLNLSCAASGFTFSDYGMSWVRQTPDMRLEWVATISKYGTYTSYPDSVKGRFTISRSNAKNTLYLQMSSLKSADTALYYCARRFFGNYNYWYFDVWGAGTTVTVSS
VL: DIVLTQSPASLAVSLGQRATFSCRASESVDEFGISYIHWYKKSPGQPPKLLIYRASTLESGISARFSGSGSGTDFTLTINPVETDDVATYYCQQSNQDPLTFGAGTKLELK
notes: Mouse hybridoma form; the mouse/human chimeric form with the same V regions is m18; also called D125S3 mouse anti-human CD47 hybridoma antibody
With B6 the binding result [3] was “no binding (tested: 70 ug/ml)” and the IC50 [4] was 0.25 µg/mL and 1.69 nM.

B7: AB6.12, a humanized version of anti-CD47 antibody 2A1 from Celgene (antibody, from another filing, V domains shown)
VH: QMQLVQSGAEVKKTGSSVKVSCKASGFNIKDYYLHWVRQAPGQALEWMGWIDPDQGDTEYAQKFQDRVTITRDRSMSTAYMELSSLRSEDTAMYYCNAAYGSSSYPMDYWGQGTTVTVSS
VL: NIQMTQSPSAMSASVGDRVTITCKASQDIHRYLSWFQQKPGKVPKHLIYRANRLVSGVPSRFSGSGSGTEFTLTISSLQPEDFATYYCLQYDEFPYTFGGGTKVEIKR
An IC50 [5] of 8.6 µg/mL, a Kd [6] of 47.9 pM and a koff [6] of 2.25e-05 s⁻¹ were found for B7 in this work. The kon [6] was 469000 M⁻¹ s⁻¹, the Kd [7] was 798 pM and the koff [7] was 0.000703 s⁻¹. The kon [7] was 881000 M⁻¹ s⁻¹, the Kd [8] was 47.9 pM and the Kd [9] was 798 pM.
